Experimental data from paper PMC2199009.

Columns and labels:
[1] = molecular target: purified full length LFA-1 (lymphocyte function–associated antigen 1) (human (endogenous in JY)) (UniProt P20701); assay: adhesion in a parallel plate flow cell
[2] = molecular target: GPI-anchored form of the LFA-1 I domain (I-GPI), stably expressed on baby hamster kidney cells (UniProt P20701); assay: radioligand binding

Chain of UniProt P20701 (P20701 26-1170, chain 1 of 2): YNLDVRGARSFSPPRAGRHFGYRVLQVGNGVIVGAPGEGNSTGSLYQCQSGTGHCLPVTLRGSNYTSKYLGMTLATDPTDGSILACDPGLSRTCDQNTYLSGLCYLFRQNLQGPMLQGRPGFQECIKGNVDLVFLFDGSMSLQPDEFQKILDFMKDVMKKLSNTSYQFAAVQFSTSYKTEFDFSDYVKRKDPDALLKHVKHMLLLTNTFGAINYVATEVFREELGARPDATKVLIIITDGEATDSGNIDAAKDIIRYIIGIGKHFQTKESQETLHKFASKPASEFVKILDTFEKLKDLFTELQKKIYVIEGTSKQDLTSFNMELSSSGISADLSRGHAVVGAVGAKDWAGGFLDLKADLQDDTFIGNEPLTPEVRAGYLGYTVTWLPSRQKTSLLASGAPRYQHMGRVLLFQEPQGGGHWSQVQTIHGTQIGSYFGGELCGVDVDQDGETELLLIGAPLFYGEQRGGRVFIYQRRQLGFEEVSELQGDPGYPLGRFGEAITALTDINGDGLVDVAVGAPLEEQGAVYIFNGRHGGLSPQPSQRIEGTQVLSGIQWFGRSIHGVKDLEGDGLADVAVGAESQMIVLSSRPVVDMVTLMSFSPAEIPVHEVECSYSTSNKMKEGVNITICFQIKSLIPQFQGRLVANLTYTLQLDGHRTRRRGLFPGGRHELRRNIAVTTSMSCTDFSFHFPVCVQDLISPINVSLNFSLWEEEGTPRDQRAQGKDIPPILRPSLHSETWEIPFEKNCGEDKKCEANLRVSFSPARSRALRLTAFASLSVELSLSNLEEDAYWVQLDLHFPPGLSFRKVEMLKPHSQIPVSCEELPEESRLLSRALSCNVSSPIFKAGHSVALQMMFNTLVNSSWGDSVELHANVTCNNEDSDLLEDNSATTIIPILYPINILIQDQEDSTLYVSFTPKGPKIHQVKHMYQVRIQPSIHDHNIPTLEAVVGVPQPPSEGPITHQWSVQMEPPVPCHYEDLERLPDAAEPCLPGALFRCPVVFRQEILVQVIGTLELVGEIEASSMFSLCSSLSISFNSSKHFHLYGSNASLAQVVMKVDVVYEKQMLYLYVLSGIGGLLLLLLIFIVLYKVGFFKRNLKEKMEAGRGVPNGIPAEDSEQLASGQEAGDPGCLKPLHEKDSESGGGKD
Chain of UniProt P20701 (P05107 23-769, chain 2 of 2, further chain): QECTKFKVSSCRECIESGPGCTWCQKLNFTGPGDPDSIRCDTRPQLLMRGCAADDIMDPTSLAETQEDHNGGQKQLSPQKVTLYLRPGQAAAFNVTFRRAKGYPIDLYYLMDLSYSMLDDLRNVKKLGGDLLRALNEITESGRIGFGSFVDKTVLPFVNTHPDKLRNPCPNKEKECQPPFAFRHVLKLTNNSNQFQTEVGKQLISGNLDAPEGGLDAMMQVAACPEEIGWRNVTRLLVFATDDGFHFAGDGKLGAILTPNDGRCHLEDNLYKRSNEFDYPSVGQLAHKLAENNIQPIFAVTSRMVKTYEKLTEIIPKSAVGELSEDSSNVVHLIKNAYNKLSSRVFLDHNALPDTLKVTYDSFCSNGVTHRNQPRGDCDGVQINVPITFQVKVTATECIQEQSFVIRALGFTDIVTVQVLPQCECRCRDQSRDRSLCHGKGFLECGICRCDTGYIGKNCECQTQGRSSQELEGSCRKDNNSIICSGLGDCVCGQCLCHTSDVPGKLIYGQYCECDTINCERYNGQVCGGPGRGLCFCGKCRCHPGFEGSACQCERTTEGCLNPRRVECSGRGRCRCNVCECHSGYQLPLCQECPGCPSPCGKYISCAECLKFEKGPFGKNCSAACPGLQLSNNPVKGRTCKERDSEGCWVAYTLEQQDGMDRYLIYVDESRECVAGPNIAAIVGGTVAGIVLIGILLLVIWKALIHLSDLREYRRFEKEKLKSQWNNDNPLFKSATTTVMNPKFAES

Row | Substance | percent cells free [1] [%] | percent cells rolling [1] [%] | percent cells stable [1] [%] | IC50 [2] [µM]
1 | ICAM-1 GPI on transfected baby hamster kidney cells (domain or fragment) | 73 | 0 | 26 | –
2 | soluble ICAM-1 (sICAM-1) (domain or fragment) | – | – | – | 150
